From paper PMC5553682

Biological target: GFP-Cav3.1 pore mutant (human)
Experiment: FRET or BRET; live tsA-201 cells also expressing Kir2.1, exposed to high [K]o (50 mM); % change of the mKate:GFP ratio against time 0; the decrease was prevented by TTA-P2, mibefradil + Ni2+ or BAPTA-AM

Question: With “mKate-CaM (from UniProt P0DP23 1-149) (natural protein)” as the substance, how does the % change of FRET (mKate:GFP ratio) in high [K]o read?
Answer: Its % change of FRET (mKate:GFP ratio) in high [K]o is 4.55%.
